In the Immune Epitope Database (IEDB):

Assays:
HLA-B*15:09 = test: IEDB peptide-MHC binding, purified MHC/direct/fluorescence; filed as Kd, often an IC50 or EC50 that approximates it; ≥ and ≤ were set here for values at or beyond the usual limits of such assays; conditions: source organism: Variola virus
HLA-B*39:01 [1] = test: as above; conditions: source organism: Camelpox virus CMS
HLA-A*02:50 = test: IEDB peptide-MHC binding, purified MHC/competitive/fluorescence; filed as Kd, often an IC50 or EC50 that approximates it; ≥ and ≤ were set here for values at or beyond the usual limits of such assays
HLA-A*02:01 [2] = test: IEDB peptide-MHC binding, purified MHC/direct/fluorescence; filed as Kd, often an IC50 or EC50 that approximates it; ≥ and ≤ were set here for values at or beyond the usual limits of such assays
HLA-A*69:01 [3] = test: as above
HLA-A*02:11 [4] = test: as above
HLA-C*12:03 = test: as above; conditions: source organism: Salmonella enterica subsp. enterica serovar Typhi
HLA-B*51:01 = test: IEDB peptide-MHC binding, purified MHC/competitive/fluorescence; filed as Kd, often an IC50 or EC50 that approximates it; ≥ and ≤ were set here for values at or beyond the usual limits of such assays; conditions: source organism: Canarypox virus
HLA-A*02:01 [5] = test: as above; conditions: source organism: Canarypox virus
HLA-A*02:03 = test: as above; conditions: source organism: Canarypox virus
HLA-A*69:01 [6] = test: as above; conditions: source organism: Canarypox virus
HLA-B*57:01 = test: as above; conditions: source organism: Canarypox virus
HLA-B*15:01 = test: as above; conditions: source organism: Canarypox virus
HLA-B*15:17 = test: as above; conditions: source organism: Canarypox virus
HLA-A*02:19 = test: as above; conditions: source organism: Canarypox virus
HLA-A*24:03 = test: as above; conditions: source organism: Canarypox virus
HLA-A*02:11 [7] = test: as above; conditions: source organism: Canarypox virus
HLA-A*02:12 = test: as above; conditions: source organism: Canarypox virus
HLA-B*18:01 = test: as above; conditions: source organism: Canarypox virus
HLA-A*02:16 = test: as above; conditions: source organism: Canarypox virus
HLA-A*68:02 = test: as above; conditions: source organism: Canarypox virus
HLA-B*39:01 [8] = test: as above; conditions: source organism: Canarypox virus
HLA-B*46:01 = test: as above; conditions: source organism: Canarypox virus
HLA-A*23:01 = test: as above; conditions: source organism: Canarypox virus
HLA-A*26:01 = test: as above; conditions: source organism: Canarypox virus
HLA-A*31:01 = test: as above; conditions: source organism: Canarypox virus
HLA-B*27:03 = test: as above; conditions: source organism: Canarypox virus
[9] = source organism: Salmonella enterica subsp. enterica serovar Typhi
[10] = source organism: Mycobacterium tuberculosis

AHDELENYI showed a Kd (HLA-B*15:09) of 1670 nM and a Kd (HLA-B*39:01 [1]) of 2860 nM.
For FIKNPACTV, the Kd (HLA-A*02:50; [9]) was 1.9 nM, the Kd (HLA-A*02:01 [2]; [9]) was 6.36 µM and the Kd (HLA-A*69:01 [3]; [9]) was 154 nM. For the same sequence, the Kd (HLA-A*02:11 [4]; [9]) was 2 nM and the Kd (HLA-C*12:03) was at most 1 nM.
GTIIVHPNK showed a Kd (HLA-B*51:01) of at least 20 µM, a Kd (HLA-A*02:01 [5]) of at least 20 µM and a Kd (HLA-A*02:03) of at least 20 µM. For the same sequence, the Kd (HLA-A*69:01 [6]) was at least 20 µM, the Kd (HLA-B*57:01) was at least 20 µM and the Kd (HLA-B*15:01) was at least 20 µM. It also gave a Kd (HLA-B*15:17) of at least 20 µM, a Kd (HLA-A*02:19) of at least 20 µM and a Kd (HLA-A*24:03) of at least 20 µM. The Kd (HLA-A*02:11 [7]) was at least 20 µM, the Kd (HLA-A*02:12) was at least 20 µM and the Kd (HLA-B*18:01) was at least 20 µM. The Kd (HLA-A*02:16) was at least 20 µM, the Kd (HLA-A*68:02) was at least 20 µM and the Kd (HLA-B*39:01 [8]) was at least 20 µM. It also gave a Kd (HLA-B*46:01) of at least 20 µM, a Kd (HLA-A*23:01) of at least 20 µM and a Kd (HLA-A*26:01) of at least 20 µM. For the same sequence, the Kd (HLA-A*31:01) was 101 nM and the Kd (HLA-B*27:03) was at least 20 µM.
SFYGYGFNV gave a Kd (HLA-A*02:50; source organism: Mycobacterium tuberculosis H37Ra) of 22.4 nM, a Kd (HLA-A*02:01 [2]; [10]) of 0.413 µM and a Kd (HLA-A*69:01 [3]; [10]) of 52 nM. For the same sequence, the Kd (HLA-A*02:11 [4]; source organism: Mycobacterium tuberculosis str. Haarlem) was 10 nM.
